# Numbered stars: 1 amine (or outer) side, 2 acyl side, 3 side chain; on linkers, the order of the positions; unused ones are H or OH. Square brackets hold non-standard residues; d marks the D form. * marks the point of attachment. Cholesteryloxycarbonyl = CC(C)CCC[C@@H](C)[C@H]1CC[C@H]2[C@@H]3CC=C4C[C@@H](OC(=O)*)CC[C@]4(C)[C@H]3CC[C@]12C; Ser(Me) = COC[C@H](N[*:1])C(=O)[*:2]; hLeu = CC(C)CC[C@H](N)C(=O)O; Nva = CCC[C@H](N)C(=O)O; Dap = NC[C@H](N)C(=O)O
# B1: PTR 6334 (peptide)
# peptide: Cholesteryloxycarbonyl-GGGGGRPR[Nva]Y[Dap][hLeu]-NH2
# SMILES: CCC[C@H](NC(=O)[C@H](CCCNC(=N)N)NC(=O)[C@@H]1CCCN1C(=O)[C@H](CCCNC(=N)N)NC(=O)CNC(=O)CNC(=O)CNC(=O)CNC(=O)CNC(=O)O[C@H]1CC[C@@]2(C)C(=CC[C@H]3[C@@H]4CC[C@H]([C@H](C)CCCC(C)C)[C@@]4(C)CC[C@@H]32)C1)C(=O)N[C@@H](Cc1ccc(O)cc1)C(=O)N[C@@H](CN)C(=O)N[C@@H](CCC(C)C)C(N)=O
# B2: PTR 6346 (peptide)
# peptide: Cholesteryloxycarbonyl-RPR[Nva]Y[Dap][hLeu][dK][dK][dK]-NH2
# SMILES: CCC[C@H](NC(=O)[C@H](CCCNC(=N)N)NC(=O)[C@@H]1CCCN1C(=O)[C@H](CCCNC(=N)N)NC(=O)O[C@H]1CC[C@@]2(C)C(=CC[C@H]3[C@@H]4CC[C@H]([C@H](C)CCCC(C)C)[C@@]4(C)CC[C@@H]32)C1)C(=O)N[C@@H](Cc1ccc(O)cc1)C(=O)N[C@@H](CN)C(=O)N[C@@H](CCC(C)C)C(=O)N[C@H](CCCCN)C(=O)N[C@H](CCCCN)C(=O)N[C@H](CCCCN)C(N)=O
# B3: PTR 6344 (peptide)
# peptide: Cholesteryloxycarbonyl-KKKRPR[Nva]Y[Dap][hLeu]-NH2
# SMILES: CCC[C@H](NC(=O)[C@H](CCCNC(=N)N)NC(=O)[C@@H]1CCCN1C(=O)[C@H](CCCNC(=N)N)NC(=O)[C@H](CCCCN)NC(=O)[C@H](CCCCN)NC(=O)[C@H](CCCCN)NC(=O)O[C@H]1CC[C@@]2(C)C(=CC[C@H]3[C@@H]4CC[C@H]([C@H](C)CCCC(C)C)[C@@]4(C)CC[C@@H]32)C1)C(=O)N[C@@H](Cc1ccc(O)cc1)C(=O)N[C@@H](CN)C(=O)N[C@@H](CCC(C)C)C(N)=O
# B4: PTR 6336 (peptide)
# peptide: Cholesteryloxycarbonyl-GGGGGGRPR[Nva]Y[Dap][hLeu]-NH2
# SMILES: CCC[C@H](NC(=O)[C@H](CCCNC(=N)N)NC(=O)[C@@H]1CCCN1C(=O)[C@H](CCCNC(=N)N)NC(=O)CNC(=O)CNC(=O)CNC(=O)CNC(=O)CNC(=O)CNC(=O)O[C@H]1CC[C@@]2(C)C(=CC[C@H]3[C@@H]4CC[C@H]([C@H](C)CCCC(C)C)[C@@]4(C)CC[C@@H]32)C1)C(=O)N[C@@H](Cc1ccc(O)cc1)C(=O)N[C@@H](CN)C(=O)N[C@@H](CCC(C)C)C(N)=O
# B5: PTR 6332 (peptide)
# peptide: Cholesteryloxycarbonyl-GGGGRPR[Nva]Y[Dap][hLeu]-NH2
# SMILES: CCC[C@H](NC(=O)[C@H](CCCNC(=N)N)NC(=O)[C@@H]1CCCN1C(=O)[C@H](CCCNC(=N)N)NC(=O)CNC(=O)CNC(=O)CNC(=O)CNC(=O)O[C@H]1CC[C@@]2(C)C(=CC[C@H]3[C@@H]4CC[C@H]([C@H](C)CCCC(C)C)[C@@]4(C)CC[C@@H]32)C1)C(=O)N[C@@H](Cc1ccc(O)cc1)C(=O)N[C@@H](CN)C(=O)N[C@@H](CCC(C)C)C(N)=O
# B6: PTR 6338 (peptide)
# peptide: Cholesteryloxycarbonyl-[dK][dK][dK][dK][dK][dK]RPR[Nva]Y[Ser(Me)][hLeu]-NH2
# SMILES: CCC[C@H](NC(=O)[C@H](CCCNC(=N)N)NC(=O)[C@@H]1CCCN1C(=O)[C@H](CCCNC(=N)N)NC(=O)[C@@H](CCCCN)NC(=O)[C@@H](CCCCN)NC(=O)[C@@H](CCCCN)NC(=O)[C@@H](CCCCN)NC(=O)[C@@H](CCCCN)NC(=O)[C@@H](CCCCN)NC(=O)O[C@H]1CC[C@@]2(C)C(=CC[C@H]3[C@@H]4CC[C@H]([C@H](C)CCCC(C)C)[C@@]4(C)CC[C@@H]32)C1)C(=O)N[C@@H](Cc1ccc(O)cc1)C(=O)N[C@@H](COC)C(=O)N[C@@H](CCC(C)C)C(N)=O
# Molecular target: protein kinase B (PKB)
# Assay: cell-based or functional assay
row,"IC50, in vitro kinase assay PKB",Binder
1,1000 nM,B1
2,200 nM,B2
3,300 nM,B3
4,1000 nM,B4
5,1000 nM,B5
6,100 nM,B6

# — patent publication US20070078092A1 (CUREGENICS, published 2007)
